Reference: IntAct's records for PubMed 19461891

B1: Defective in germ line development protein 3 (Caenorhabditis elegans), Q95ZK7-1 (parent)
chain: MGEQSHEKDHDEAHSYNPFVRSAVEYDADTRLQMAENAASARKLFVSSALKDIIVNPENFYHDFQQSAQMAEDANQRRQVSYNTKREAHIHQLKAQGLPLPSNIPMIEINPTRVTLNMEFESQYYSLMTSDNGDHENVASIMAETNTLIQLPDRSVGGTTPDPFAQQVTITGYFGDVDRARMLMRRNCHFTVFMALSKMKMPLHELQAHVRQNPIQNVEMSFVDAPEKNGIVTTYLRITAREKNQHELIEAAKRLNEILFRESPAPENNFTLHFTLSTYYVDQVLGSSSTAQLMPVIERETTTIISYPCYNNRNETRGNIYEIKVVGNIDNVLKARRYIMDLLPISMCFNIKNTDMAEPSRVSDRNIHMIIDESGIILKMTPSVYEPADLLSGEVPLNCASLRSKEFNIKKLYTAYQKVLSKKFDFIAPQPNDYDNSIWHHSLPANFLKNFNMPCRGELSDGSNGRRHRSSSIASSRSKHSYMSKGKQFSESSGGPSRSHTRVSSFSENSSTVPIMQFPTPHFAPPMLTPHHHMLKYVYLQQHQQAQTFLKGAAGLHPGTHIMFPPPIIVDGSFVSALPFADPVVFDGFPYVHGLFPVNEAEQHRNHRESSPSLRSTQEIRKPSRNMGNRPSSSTGSYYPSTTPRQRVYEQVREDDLRSHIGSRRTSVNGDDQNVESMHDQGYERQYPRQHQRLQKDDQQRWKTGSRGDIHSSRTINVHRDVRNSNEYDFHVGNSGPAKRSPSLEQVQLQMTHHLKLKSNDVDLDHEKLYMHESPHNDSDTTVSASGFGNDLMDGDFVQRFLSNANINESGRRPRTVSCFTEKDGQSARYIDSDGAYSVVDHASTHQSRSYDSFRKVGDNGVTKTILEPRARVEKDYGKISLEHKTKYSNEYGDEEKSAENDTSSLGSRQYRIDPMKLIASVRESSEQLPRIHERQFSDVLNEKEKEIADKSIESTVTQDLSLDETSTY
partner: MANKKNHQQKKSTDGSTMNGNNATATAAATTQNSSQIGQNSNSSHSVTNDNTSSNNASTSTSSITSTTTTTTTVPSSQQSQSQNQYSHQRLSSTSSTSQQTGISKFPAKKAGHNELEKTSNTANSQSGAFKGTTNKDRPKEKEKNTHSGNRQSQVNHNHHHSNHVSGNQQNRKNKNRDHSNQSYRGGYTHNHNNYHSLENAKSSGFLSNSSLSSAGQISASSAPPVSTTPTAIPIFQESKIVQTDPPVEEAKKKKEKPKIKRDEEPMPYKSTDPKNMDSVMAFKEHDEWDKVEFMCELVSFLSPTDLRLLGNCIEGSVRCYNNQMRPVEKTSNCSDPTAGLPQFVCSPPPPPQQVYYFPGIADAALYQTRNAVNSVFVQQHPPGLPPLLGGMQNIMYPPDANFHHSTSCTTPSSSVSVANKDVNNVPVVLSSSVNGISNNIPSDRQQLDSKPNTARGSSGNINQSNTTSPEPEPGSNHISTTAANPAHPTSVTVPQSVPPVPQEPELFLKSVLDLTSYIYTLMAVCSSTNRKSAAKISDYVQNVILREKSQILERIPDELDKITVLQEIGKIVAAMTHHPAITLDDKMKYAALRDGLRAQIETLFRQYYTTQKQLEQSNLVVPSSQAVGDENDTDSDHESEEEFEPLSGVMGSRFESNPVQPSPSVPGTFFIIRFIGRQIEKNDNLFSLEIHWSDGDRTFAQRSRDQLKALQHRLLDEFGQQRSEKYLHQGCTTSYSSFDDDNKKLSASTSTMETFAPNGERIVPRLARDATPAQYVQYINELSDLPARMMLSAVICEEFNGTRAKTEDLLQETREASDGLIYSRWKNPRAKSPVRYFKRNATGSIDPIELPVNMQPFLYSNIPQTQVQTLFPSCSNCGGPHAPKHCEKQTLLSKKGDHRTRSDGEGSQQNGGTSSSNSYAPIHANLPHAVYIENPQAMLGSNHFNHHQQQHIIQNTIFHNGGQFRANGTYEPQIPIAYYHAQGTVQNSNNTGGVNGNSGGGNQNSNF

Variants of: B1
Details: with gls-1, Q8I4M5-3

Variant | effect of a mutation on the interaction
G327R | disrupting interaction strength
